The values below come from US12227551B2, “Membrane bound IL12 compositions and methods for tunable regulation” (Obsidian Therapeutics, Inc., priority 2018, dated 2025).

The subject of series [1] is phospho-STAT4 in GFP+ T cells. As to the kind of experiment: Bystander effect: phospho-STAT4 in GFP+ T cells incubated 1 hour with co-culture supernatants, flow cytometry (Example 6; Table 20). It is filed as cell-based, human. As for the experimental part: (§1) Membrane bound IL12 (mbIL12) was expressed in tandem with a CD19-CAR and tested in primary human T cells. On day 0, primary human T cells were stimulated with Dynabeads (T-expander CD3/CD28) at a 3:1 bead:cell ratio in media containing 10% fetal bovine serum (FBS). The next day, lentivirus with mbIL12 in tandem with a CD19-CAR construct was added in the presence of reduced serum (5% FBS). After 7 days of T cell expansion, increasing numbers of CAR+ T cells were cocultured with 10,000 GFP+, CAR-negative T cells. At the end of 1 hour of co-culture, the phospho-STAT4 levels within the GFP+ T cells were quantitated by flow cytometry using reagents and methods from BD. To determine the relative amount of IL12 activity that had accumulated in the T cell supernatants during the hour-long co-culture, cell supernatants from the co-culture were transferred to a new plate of GFP+ T cells and incubated for 1 hour. Phospho-STAT4 levels were measured in the GFP+ T cells incubated with the supernatants from the original co-culture. The transactivation ([…] geometric mean fluorescence (MFI) on GFP+ cells in co-culture) and the bystander effect (pSTAT4 geometric MFI on GFP+ T cells in 1 hour supernatants) for a CAR-IL12+:GFP+ ratio of 64 are shown in Table 20.
(§2) The transactivation (pSTAT4 geometric mean fluorescence (MFI) on GFP+ cells in co-culture) and the bystander effect (pSTAT4 geometric MFI on GFP+ T cells in 1 hour supernatants) for the constructs at different ratios are summarized below. For OT-001407, when (a) the CAR-IL12+:GFP+ ratio was 32, the transactivation was 1711 and the bystander effect was −1680, (b) the CAR-IL12+:GFP+ ratio was 16, the transactivation was 1768 and the bystander effect was −1632, (c) the CAR-IL12+:GFP+ ratio was 8, the transactivation was 1433 and the bystander effect was −1603, (d) the CAR-IL12+:GFP+ ratio was 4, the transactivation was 1195 and the bystander effect was −1860, and (e) the CAR-IL12+:GFP+ ratio was 2, the transactivation was 1101 and the bystander effect was −1800. For OT-001356, when (a) the CAR-IL12+:GFP+ ratio was 73.9, the transactivation was 6452 and the bystander effect was −2617, (b) the CAR-IL12+:GFP+ ratio was 37, the transactivation was 6935 and the bystander effect was −1404, (c) the CAR-IL12+:GFP+ ratio was 18.5, the transactivation was 6417 and the bystander effect was −226, (d) the CAR-IL12+:GFP+ ratio was 9.2, the transactivation was 5568 and the bystander effect was −86, (e) the CAR-IL12+:GFP+ ratio was 4.6, the transactivation was 4374 and the bystander effect was −518, and (f) the CAR-IL12+:GFP+ ratio was 2.3, the transactivation was 2839 and the bystander effect was −1093. For OT-001895, when (a) the CAR-IL12+:GFP+ ratio was 34.1, the transactivation was 7699 and the bystander effect was −3724, (b) the CAR-IL12+:GFP+ ratio was 17.1, the transactivation was 7718 and the bystander effect was −2996, (c) the CAR-IL12+:GFP+ ratio was 8.5, the transactivation was 8200 and the bystander effect was −1178, (d) the CAR-IL12+:GFP+ ratio was 4.3, the transactivation was 7172 and the bystander effect was −277, (e) the CAR-IL12+:GFP+ ratio was 2.1, the transactivation was 6095 and the bystander effect was −238, and (f) the CAR-IL12+:GFP+ ratio was 1.1, the transactivation was 4498 and the bystander effect was −136. For OT-002011, when (a) the CAR-IL12+:GFP+ ratio was 75.8, the transactivation was 8086 and the bystander effect was −3531, (b) the CAR-IL12+:GFP+ ratio was 37.9, the transactivation was 8031 and the bystander effect was −2884, (c) the CAR-IL12+:GFP+ ratio was 18.9, the transactivation was 8324 and the bystander effect was −1376, (d) the CAR-IL12+:GFP+ ratio was 9.5, the transactivation was 7765 and the bystander effect was −1133, (e) the CAR-IL12+:GFP+ ratio was 4.7, the transactivation was 6682 and the bystander effect was −566, and (f) the CAR-IL12+:GFP+ ratio was 2.4, the transactivation was 5190 and the bystander effect was −642. […]
In general terms: Flow cytometry measures light scatter and fluorescence of single cells or particles in a stream.

A further series concerns T cells. As to the kind of experiment: Percentage of CAR positive cells after 10 days expansion (Example 7). To be noted: T cells expanded for 10 days. The format is cell-based.
The test system of series [2] is phospho-STAT4 in GFP+ T cells. Nature of the series: Transactivation: phospho-STAT4 in GFP+ CAR-negative T cells after 1 hour co-culture with CAR-mbIL12 T cells, flow cytometry (Example 6; Table 20). It is filed as cell-based, human. As for the experimental part:
as §1, §2

The nature of series [3]: Body weight and clinical signs of GVHD, Nalm6-Luc NSG model (Example 9; Table 30). It is filed as in vivo, NSG mice. Particulars: in g (unit assumed). The procedure: The study was designed to determine if membrane bound IL12 (mbIL12) expressed on CAR-T cells via a CD8 TM domain and CD8 Hinge Region promotes CAR T cell expansion in cis, promotes non-CAR-T cell expansion in trans, and/or increases in vivo CAR T cell efficacy against CD19+ Nalm6 tumors. To test in vivo anti-tumor activity, experiments were performed in NSG mice. Nalm6 cells were transfected with Redifect Red-Fluc (Perkin Elmer) under selection using Puromycin for ˜2 months to generate a line that stably expresses the luciferase reporter; thereafter named Nalm6-Luc. Ten days before tumor implantation, Nalm6-Luc cells were thawed and cultured in puromycin-containing media. On day 0, cells were counted, resuspended in PBS and injected into NSG mice via tail vein. On day 6, mice were imaged for bioluminescent intensity (BLI) and sorted into groups based on their tumor size ensuring that all groups had the same sized tumors. Human T cells were transduced with one of the following constructs as shown in the study design in Table 27:
The amount of body weight loss appeared to correlate with the levels of plasma IL12 detected at earlier timepoints (Table 31).

B1: OT-001356: CD19 CAR; stop; IRES; secreted IL12 (p40 23-328; (G4S)3; p35 57-253); nucleic acid SEQ ID NO: 482 (protein)
chain: IWELKKDVYVVELDWYPDAPGEMVVLTCDTPEEDGITWTLDQSSEVLGSGKTLTIQVKEFGDAGQYTCHKGGEVLSHSLLLLHKKEDGIWSTDILKDQKEPKNKTFLRCEAKNYSGRFTCWWLTTISTDLTFSVKSSRGSSDPQGVTCGAATLSAERVRGDNKEYEYSVECQEDSACPAAEESLPIEVMVDAVHKLKYENYTSSFFIRDIIKPDPPKNLQLKPLKNSRQVEVSWEYPDTWSTPHSYFSLTFCVQVQGKSKREKKDRVFTDKTSATVICRKNASISVRAQDRYYSSSWSEWASVPCSGGGGSGGGGSGGGGSRNLPVATPDPGMFPCLHHSQNLLRAVSNMLQKARQTLEFYPCTSEEIDHEDITKDKTSTVEACLPLELTKNESCLNSRETSFITNGSCLASRKTSFMMALCLSSIYEDLKMYQVEFKTMNAKLLMDPKRQIFLDQNMLAVIDELMQALNFNSETVPQKSSLEEPDFYKTKIKLCILLHAFRIRAVTIDRVMSYLNASGS
With B1, the “bystander effect (pSTAT4 geometric MFI on GFP+ T cells in 1 hour supernatants)” value in series [1] (CAR-IL12+:GFP+ ratio 2.3) is −1093; in series [1] (CAR-IL12+:GFP+ ratio 4.6) it was −518; in series [1] (CAR-IL12+:GFP+ ratio 9.2) it was −86; in series [1] (CAR-IL12+:GFP+ ratio 18.5), −226; in series [1] (CAR-IL12+:GFP+ ratio 37) it was −1404; in series [1] (CAR-IL12+:GFP+ ratio 73.9), −2617. For the same molecule, the “Percentage of CAR positive cells” value in the series on T cells was determined as 45.3%. For the same molecule, the “transactivation (pSTAT4 geometric MFI on GFP+ cells in co-culture)” value came out at 2839 in series [2] (CAR-IL12+:GFP+ ratio 2.3); 4374 in series [2] (CAR-IL12+:GFP+ ratio 4.6); 5568 in series [2] (CAR-IL12+:GFP+ ratio 9.2); 6417 in series [2] (CAR-IL12+:GFP+ ratio 18.5); 6935 in series [2] (CAR-IL12+:GFP+ ratio 37); 6452 in series [2] (CAR-IL12+:GFP+ ratio 73.9). The Transactivation in series [2] (CAR-IL12+:GFP+ ratio of 64, pSTAT4 geometric MFI on GFP+ cells, 1 hour co-culture) was determined as 6452. Moreover, the body weight in series [3] (day 6 post tumor implant (before T cell infusion)) came out at 19.6125; in series [3] (day 13 post tumor implant), 20.5125; in series [3] (day 20 post tumor implant) it was 20.5875; in series [3] (day 27 post tumor implant), 22.2125; in series [3] (day 34 post tumor implant) it was 21.8875; in series [3] (day 41 post tumor implant) it was 19.93.
